Measurements from the Immune Epitope Database (IEDB).

These sequences were tested against HLA-A*02:01 (assay: IEDB peptide-MHC binding, purified MHC/competitive/radioactivity; ≥ and ≤ were set here for values at or beyond the usual limits of such assays). Details: source organism: Mammarenavirus brazilense.

Sequence	IC50
ALIAVSLIA	1100 nM
ALIAVSLIAA	28 nM
ALTSLGLLYT	593 nM
CMVNHSTYYV	73 nM
EAINIALIAV	1480 nM
FQLIFFLTL	353 nM
FQLIFFLTLA	229 nM

Same assay, conditions: source organism: Mammarenavirus choriomeningitidis

Sequence	IC50
ALPHIIDEV	57 nM

Same assay, conditions: source organism: Mammarenavirus juninense

Sequence	IC50
ALVAVSLIAI	324 nM
FMISFDDIAV	5.4 nM
FQFFVFLAL	675 nM
FQTVSFSMV	180 nM

Same assay, conditions: source organism: Mammarenavirus lassaense

Sequence	IC50
ALMDCIMFDA	1.1 nM

Same assay, conditions: source organism: Mammarenavirus machupoense

Sequence	IC50
ALLPLSLLFL	4.7 nM
ALTIACMTV	332 nM
ALVAVSLIA	3690 nM
AMPGVLSYVI	2450 nM
DAMPGVLSYV	44 nM
EALNIALVAV	341 nM
FLPKAAFAL	30 nM
FLQEALNIA	6.9 nM
FLQEALNIAL	16 nM
FTASLFLHLV	75 nM

Same assay, conditions: source organism: Mammarenavirus whitewaterense

Sequence	IC50
ALIAVSIISI	246 nM
ALNIALIAV	19 nM
CMINDTHFLL	66 nM
FLKMRRIFGV	64 nM
FLLRGPFEA	11 nM

Same assay, conditions: source organism: Vaccinia virus WR

Sequence	IC50
AALGGSVNI	1460 nM
AAMYQYIFL	686 nM
AASSTHRKV	2640 nM
AIFTDASTV	697 nM
AIIAIVFVFI	940 nM
AIIDIEPDL	301 nM
AIIGLCAYA	81 nM
AIIPLSASV	14 nM
AIMESDSFL	173 nM
AITDAAVAV	1480 nM
AITDAAVAVA	3830 nM
AIYKLGSSI	1100 nM
AIYSAILLLV	53 nM
ALAKNASEL	73 nM
ALATFTVNI	0.6 nM
ALFGIKLPAL	2.5 nM
ALGGSVNIWA	1160 nM
ALIANIHNHM	118 nM
ALLSRFFNM	0.61 nM
ALLVATDPDA	606 nM
ALMAITKNV	8.4 nM
ALMRRIAVV	1.8 nM
ALNHLVLSL	0.45 nM
ALQNVMISI	440 nM

Sequence	IC50
ALTIMGVIFL	180 nM
ALTNAQFFV	1.3 nM
ALVALVITI	1.9 nM
ALVASLNPNM	1330 nM
ALWIPDLFM	0.14 nM
AMFTAALNI	2.4 nM
AMFTTMYNI	2.8 nM
AMIELCGAFL	0.78 nM
AMTAFFGEL	50 nM
ATNIFPFFV	17 nM
ATYHIIIVAL	1150 nM
AVISKVTYSL	4770 nM
AVKDKNWTV	1810 nM
AVLLTYFCFV	3.4 nM
AVNEEWLTAV	390 nM
AVTKTDGIPI	1460 nM
AVVYSTCTV	104 nM
CIDGKWNPV	8.3 nM
CIDGKWNPVL	1860 nM
CISQHQHLA	449 nM
CLCSFHNDA	4140 nM
CLCSFHNDAI	2880 nM
CLKDIIDFL	671 nM
CLVVSTKGDV	674 nM

Sequence	IC50
CMAFTIPSI	0.9 nM
CMSANEAAI	16 nM
CQQKCDMPSL	2370 nM
CTANSWNVI	794 nM
CVLPAVVYST	303 nM
CVLTTIDGV	293 nM
DAIIDIEPDL	2270 nM
DALATFTVNI	178 nM
DASLMDMITL	206 nM
DIIDFLEGA	445 nM
DLLSYYVVYV	0.45 nM
DLYDYITRI	1030 nM
DMIDNLNIV	2360 nM
DMMSLNLTIV	2850 nM
DMTKVDVEL	3990 nM
DTVFDYYVL	54 nM
DTWGSDGNPI	1150 nM
DVVILLLSSV	907 nM
EAAITDAAV	2320 nM
EATYHIIIVA	2120 nM
EIIPSSIPV	4650 nM
EILGIAHLL	4330 nM
ELIAFSSGTV	997 nM
ELIKELTTL	134 nM

Sequence	IC50
ELKETLLHV	4330 nM
ELMYIFAAL	108 nM
ELQKFSFKI	167 nM
ELVFIKPPLI	3300 nM
ELVRYIELV	291 nM
ELYNKPLYEV	0.79 nM
EQEFLTAAL	17 nM
ETIGNQLYL	3540 nM
ETYHLIDYET	3180 nM
EVGIKSVVV	123 nM
EVVDMLSTYL	1780 nM
FAAELTIGV	0.32 nM
FAALGGSVNI	3730 nM
FACLMFKHLL	1140 nM
FAVQTIVFI	96 nM
FIADIGIGV	0.3 nM
FIALWIPDL	1.7 nM
FICWHSSEI	53 nM
FIDILLFVI	14 nM
FIDSNEYEV	0.98 nM
FIDSYLQKL	24 nM
FIDTVSVYT	231 nM
FIEHLGEGI	4820 nM
FIFTGITLFL	0.92 nM

Sequence	IC50
FIGYMVKNV	443 nM
FIHGGILYA	8.8 nM
FIIEVSNCV	13 nM
FIILLLAIV	596 nM
FIISVISLV	0.91 nM
FIKGFLYHT	1320 nM
FIKPPLITL	373 nM
FIKQGFNNLV	119 nM
FILGIIITV	0.11 nM
FILHRLHEI	0.65 nM
FILIFNIIV	3.2 nM
FILTAILFFM	0.12 nM
FINFFNLLA	726 nM
FIRYGDASLM	2360 nM
FIVVATAAV	7 nM
FIYLLFASM	173 nM
FLAVLSPTI	0.66 nM
FLCLLMKLSI	2.1 nM
FLDNECHTI	0.78 nM
FLEGALIANI	30 nM
FLFYPSMFTL	0.23 nM
FLHESDPMVI	1.1 nM
FLHNYILYA	0.54 nM
FLHTTFIDV	0.46 nM

Sequence	IC50
FLICHNLRA	17 nM
FLIDLAFLI	0.041 nM
FLIPKGFYA	0.82 nM
FLIVRLNQCM	34 nM
FLIVSLCPT	1.5 nM
FLKDVMVEI	3 nM
FLKIKVTAA	52 nM
FLKYSRSKPA	3540 nM
FLLFLEITYT	6.9 nM
FLLIRYITT	46 nM
FLLLTSIPI	0.11 nM
FLLRSIIVA	3.1 nM
FLPIIFDAFL	0.22 nM
FLRGEAILQI	85 nM
FLRYLLFGI	2.5 nM
FLSLMSLSI	3.5 nM
FLSRLVLYA	0.075 nM
FLSRVFFCV	0.81 nM
FLSYISDTV	0.54 nM
FLTAALPVKL	384 nM
FLTLLGIGCV	0.29 nM
FLTSVINRV	2.5 nM
FLVFVKPTT	516 nM
FLVGVAIILV	7.6 nM

Sequence	IC50
FLYNVYPGA	1.3 nM
FMASPENVI	13 nM
FMASPENVIL	1070 nM
FMAYTTSHI	3.2 nM
FMFIGSPMYL	0.093 nM
FMIEGLMTSL	0.2 nM
FMIITSTKTI	1480 nM
FMLPKQDIV	4.9 nM
FMMVLPGAA	6.7 nM
FMQRIISLSV	1.8 nM
FMYFCEQKL	1.9 nM
FMYIESIKV	1.3 nM
FQQPQFQYL	48 nM
FQYLLPGFVL	37 nM
FQYVSYSNFI	1450 nM
FTDASTVASA	793 nM
FTFSNVCESV	2.4 nM
FTFTIYTDEV	352 nM
FTGITLFLL	130 nM
